System: mouse J774E cells
Test: Internalization (uptake) of glucocerebrosidase into J774E macrophage cells, with or without mannan
Type: cell-based
Conditions: for Glucocerebrosidase Activity, Absolute / Glucocerebrosidase Activity, Background Corrected / uptake of GA-GCB over background: GA-GCB 10 μg/mL; for Glucocerebrosidase Activity, Absolute: 4 hours at 37° C.; for Glucocerebrosidase Activity, Background Corrected / uptake of GA-GCB over background: 4 hours; for Inhibition (%) of uptake by mannan: mannan 2 μg/mL, competitor for the mannose receptor
Method: GA-GCB produced in HT-1080 cells was used in an in vitro assay to determine uptake efficiency in a mouse macrophage cell line. The specific objective of the experiment was to determine the absolute and mannose receptor-specific uptake of GA-GCB in mouse J774E cells. One day prior to assay, J774E cells were plated at 50,000 cells/cm^2 in 12 well plates in Growth Medium. For the assay, 0.5 mL of Production Medium (DMEM/F12), 0% calf serum) containing 50 nM vitamin D3 (1,2-5, Dihydroxy vitamin D3) was added to the cells. Unpurified GA-GCB (from harvest 4, Table 1) was added to the test wells at a final concentration of 10 μg/mL in the presence or absence of 2 μg/mL mannan (a competitor for the mannose receptor). Three different forms of GA-GCB were used: GA-GCB from cells treated with kifunensine (1 μg/mL), GA-GCB from cells treated with swainsonine (1 μg/mL), and GA-GCB (1 μg/mL) from untreated cells. Control wells received no GA-GCB. The wells were incubated for 4 hours at 37° C., then washed extensively in buffered saline, scraped into GA-GCB enzyme reaction buffer, passed through 2 freeze/thaw cycles, and clarified by centrifugation. The supernantant was then quantitatively tested for enzyme activity and total protein. Internalization of GA-GCB into mouse J744E cells is shown in Table 2 and is reported as Units/mg of cell lysate. […] Thus, the inhibition of intracellular mannosidases by either kifunensine or swainsonine results in GA-GCB that can be transported into cells efficiently via the mannose receptor, with kifunensine causing an approximately 2-fold greater uptake than swainsonine. Improvement in targeting of GA-GCB to cells via mannose receptors can therefore be optimized by production of GA-GCB in the presence of kifunensine or swainsonine.

B1: GA-GCB from kifunensine treated cells: unpurified gene-activated glucocerebrosidase from HT-1080 cells treated with kifunensine (1 μg/mL) (protein)
chain: ARPCIPKSFGYSSVVCVCNATYCDSFDPPTFPALGTFSRYESTRSGRRMELSMGPIQANHTGTGLLLTLQPEQKFQKVKGFGGAMTDAAALNILALSPPAQNLLLKSYFSEEGIGYNIIRVPMASCDFSIRTYTYADTPDDFQLHNFSLPEEDTKLKIPLIHRALQLAQRPVSLLASPWTSPTWLKTNGAVNGKGSLKGQPGDIYHQTWARYFVKFLDAYAEHKLQFWAVTAENEPSAGLLSGYPFQCLGFTPEHQRDFIARDLGPTLANSTHHNVRLLMLDDQRLLLPHWAKVVLTDPEAAKYVHGIAVHWYLDFLAPAKATLGETHRLFPNTMLFASEACVGSKFWEQSVRLGSWDRGMQYSHSIITNLLYHVVGWTDWNLALNPEGGPNWVRNFVDSPIIVDITKDTFYKQPMFYHLGHFSKFIPEGSQRVGLVASQKNDLDAVALMHPDGSAVVVVLNRSSKDVPLTIKDPAVGFLETISPGYSIHTYLWRRQ
+ mannan 2 μg/mL
  Glucocerebrosidase Activity, Absolute: 2977 Units/mg cell lysate
  Glucocerebrosidase Activity, Background Corrected: 2322 Units/mg cell lysate
Without mannan
  Glucocerebrosidase Activity, Absolute: 9185 Units/mg cell lysate
  Glucocerebrosidase Activity, Background Corrected: 8530 Units/mg cell lysate
  uptake of GA-GCB over background: 14 fold
  Inhibition (%) of uptake by mannan: 73%

B2: GA-GCB from swainsonine treated cells: unpurified gene-activated glucocerebrosidase from HT-1080 cells treated with swainsonine (1 μg/mL) (protein)
chain: ARPCIPKSFGYSSVVCVCNATYCDSFDPPTFPALGTFSRYESTRSGRRMELSMGPIQANHTGTGLLLTLQPEQKFQKVKGFGGAMTDAAALNILALSPPAQNLLLKSYFSEEGIGYNIIRVPMASCDFSIRTYTYADTPDDFQLHNFSLPEEDTKLKIPLIHRALQLAQRPVSLLASPWTSPTWLKTNGAVNGKGSLKGQPGDIYHQTWARYFVKFLDAYAEHKLQFWAVTAENEPSAGLLSGYPFQCLGFTPEHQRDFIARDLGPTLANSTHHNVRLLMLDDQRLLLPHWAKVVLTDPEAAKYVHGIAVHWYLDFLAPAKATLGETHRLFPNTMLFASEACVGSKFWEQSVRLGSWDRGMQYSHSIITNLLYHVVGWTDWNLALNPEGGPNWVRNFVDSPIIVDITKDTFYKQPMFYHLGHFSKFIPEGSQRVGLVASQKNDLDAVALMHPDGSAVVVVLNRSSKDVPLTIKDPAVGFLETISPGYSIHTYLWRRQ
+ mannan 2 μg/mL
  Glucocerebrosidase Activity, Absolute: 2036 Units/mg cell lysate
  Glucocerebrosidase Activity, Background Corrected: 1381 Units/mg cell lysate
Without mannan
  Glucocerebrosidase Activity, Absolute: 4787 Units/mg cell lysate
  Glucocerebrosidase Activity, Background Corrected: 4132 Units/mg cell lysate
  uptake of GA-GCB over background: 7 fold
  Inhibition (%) of uptake by mannan: 67%

B3: hmGCB: glucocerebrosidase having at least one carbohydrate chain having four or more mannose residues from a precursor oligosaccharide (protein)
chain: ARPCIPKSFGYSSVVCVCNATYCDSFDPPTFPALGTFSRYESTRSGRRMELSMGPIQANHTGTGLLLTLQPEQKFQKVKGFGGAMTDAAALNILALSPPAQNLLLKSYFSEEGIGYNIIRVPMASCDFSIRTYTYADTPDDFQLHNFSLPEEDTKLKIPLIHRALQLAQRPVSLLASPWTSPTWLKTNGAVNGKGSLKGQPGDIYHQTWARYFVKFLDAYAEHKLQFWAVTAENEPSAGLLSGYPFQCLGFTPEHQRDFIARDLGPTLANSTHHNVRLLMLDDQRLLLPHWAKVVLTDPEAAKYVHGIAVHWYLDFLAPAKATLGETHRLFPNTMLFASEACVGSKFWEQSVRLGSWDRGMQYSHSIITNLLYHVVGWTDWNLALNPEGGPNWVRNFVDSPIIVDITKDTFYKQPMFYHLGHFSKFIPEGSQRVGLVASQKNDLDAVALMHPDGSAVVVVLNRSSKDVPLTIKDPAVGFLETISPGYSIHTYLWRRQ
Summary statement
  hmGCB uptake by macrophages compared to uptake of GCB secreted from cells: increased

B4: GA-GCB from untreated cells: unpurified gene-activated glucocerebrosidase from HT-1080 cells without drug treatment (protein)
chain: ARPCIPKSFGYSSVVCVCNATYCDSFDPPTFPALGTFSRYESTRSGRRMELSMGPIQANHTGTGLLLTLQPEQKFQKVKGFGGAMTDAAALNILALSPPAQNLLLKSYFSEEGIGYNIIRVPMASCDFSIRTYTYADTPDDFQLHNFSLPEEDTKLKIPLIHRALQLAQRPVSLLASPWTSPTWLKTNGAVNGKGSLKGQPGDIYHQTWARYFVKFLDAYAEHKLQFWAVTAENEPSAGLLSGYPFQCLGFTPEHQRDFIARDLGPTLANSTHHNVRLLMLDDQRLLLPHWAKVVLTDPEAAKYVHGIAVHWYLDFLAPAKATLGETHRLFPNTMLFASEACVGSKFWEQSVRLGSWDRGMQYSHSIITNLLYHVVGWTDWNLALNPEGGPNWVRNFVDSPIIVDITKDTFYKQPMFYHLGHFSKFIPEGSQRVGLVASQKNDLDAVALMHPDGSAVVVVLNRSSKDVPLTIKDPAVGFLETISPGYSIHTYLWRRQ
+ mannan 2 μg/mL
  Glucocerebrosidase Activity, Absolute: 1678 Units/mg cell lysate
  Glucocerebrosidase Activity, Background Corrected: 1023 Units/mg cell lysate
Without mannan
  Glucocerebrosidase Activity, Absolute: 2816 Units/mg cell lysate
  Glucocerebrosidase Activity, Background Corrected: 2161 Units/mg cell lysate
  uptake of GA-GCB over background: approximately 3 fold
  Inhibition (%) of uptake by mannan: 53%

From patent publication US7138262B1, “High mannose proteins and methods of making high mannose proteins” (Shire Human Genetic Therapies, Inc., priority 2000, dated 2006)
